Assay results published in patent publication US20250136687A1 (SHANDONG SIMCERE BIOPHARMACEUTICAL, published 2025).
Where two headings read alike, the source gives them in different places. Blank lines part the entries; values can stand above or below the binder they belong to.

Key:
human CD3ε/δ-His [1] = molecular target: T1, human CD3ε/δ-His (human, UniProt P07766 23-126; P04234 22-105); experiment: ELISA, coated antigen
T1 construct: Bought recombinant heterodimer with His tag; also called human CD3ε/δ protein
T1 sequence (P07766 23-126, stated change not applied, form in doubt, chain 1 of 2): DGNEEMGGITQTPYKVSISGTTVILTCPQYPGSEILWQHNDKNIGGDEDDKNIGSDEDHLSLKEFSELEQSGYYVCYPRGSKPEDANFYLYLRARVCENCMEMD
T1 sequence (P04234 22-105, stated change not applied, form in doubt, chain 2 of 2): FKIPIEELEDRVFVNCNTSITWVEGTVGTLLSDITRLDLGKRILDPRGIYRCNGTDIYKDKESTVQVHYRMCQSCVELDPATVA
Experimental: (§1) To detect the binding activity of the humanized antibodies to CD3 protein, CD3 protein was diluted with PBS to the final concentration of […], then added to a 96-well ELISA plate at 50 μL/well, and the plate was sealed with a plastic film, and incubated overnight at 4° C. On the next day, the plate was washed 2 times with PBS, and a blocking solution [PBS+2% (v/v) BSA] was added for blocking at room temperature for 2 h. The blocking solution was poured off, and the antibody (initial concentration of 100 nM, and gradient dilution at 1:10) or a negative control antibody was added at 50 µl/well. After incubation at 37° C. for 2 h, the plate was washed 3 times with PBS. […] TMB substrate was added at 50 μl/well, and incubated at room temperature for 10 min, and then a stop solution (1.0 N HCl) was added at 50 μl/well. The OD450 nm values were read by an ELISA microplate reader (Multimode Plate Reader, EnSight, purchased from Perkin Elmer).

[2] = molecular target: T2, recombinant human CD3ε-ECD His protein (human, UniProt P07766 23-126); experiment: ELISA, coated antigen
T2 construct: extracellular domain; also called human CD3ε-His; CD3ε antigen protein; not shown: His tag
T2 sequence (P07766 23-126): as the sequence (P07766 23-126, stated change not applied, form in doubt, chain 1 of 2) above
Experimental: as §1

human CD3ε/δ-His [3] = molecular target: T1, human CD3ε/δ-His; experiment: ELISA, coated antigen; remark: listed apart in the source
Experimental: as §1

[4] = molecular target: T2, recombinant human CD3ε-ECD His protein; experiment: ELISA, coated antigen; remark: listed apart in the source
Experimental: as §1

[5] = molecular target: T3, human CD3 on the cell surface (Jurkat cells, expanded human T cells, Jurkat-Lucia NFAT cells, human PBMC) (human, UniProt P07766 23-207; P04234 22-171; P09693 23-182); experiment: FACS, expanded human T cells
T3 construct: whole, on cells; Endogenous CD3 within the TCR-CD3 complex on cells (also zeta chains and TCR); the cell type is named under assay
T3 sequence (P07766 23-207, chain 1 of 3): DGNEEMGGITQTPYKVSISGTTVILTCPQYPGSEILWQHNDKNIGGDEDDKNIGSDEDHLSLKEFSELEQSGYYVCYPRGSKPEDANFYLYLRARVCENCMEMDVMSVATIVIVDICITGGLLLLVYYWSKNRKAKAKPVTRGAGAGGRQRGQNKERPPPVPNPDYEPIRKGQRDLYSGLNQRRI
T3 sequence (P04234 22-171, chain 2 of 3): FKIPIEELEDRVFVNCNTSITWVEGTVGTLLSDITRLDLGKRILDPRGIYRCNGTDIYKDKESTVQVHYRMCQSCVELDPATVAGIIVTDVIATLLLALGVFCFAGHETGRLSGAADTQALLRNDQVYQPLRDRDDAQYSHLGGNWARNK
T3 sequence (P09693 23-182, chain 3 of 3): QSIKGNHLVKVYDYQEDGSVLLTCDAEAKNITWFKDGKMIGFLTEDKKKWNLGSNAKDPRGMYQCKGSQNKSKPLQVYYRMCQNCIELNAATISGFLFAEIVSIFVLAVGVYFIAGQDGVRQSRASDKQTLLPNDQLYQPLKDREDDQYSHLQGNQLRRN
Experimental: (§2) The binding of the chimeric antibodies to CD3 on the cell surface was analyzed by detecting the binding of the antibodies to Jurkat cells and human T cells. Suspension cells Jurkat cells were scale-up cultured in T-75 cell culture flasks to the logarithmic growth phase, the supernatant of the medium was discarded by centrifugation, and the cell pellet was washed 2 times with PBS for later use. The expanded human T cells were washed 2 times with PBS for later use. After counting the cells in the previous step, the cell pellet was resuspended with [PBS+2% (w/w) BSA] blocking solution to 4×10⁶ cells/ml, and added to a 96-well FACS reaction plate at 50 μl/well, and then the chimeric antibody to be tested was added at 50 μl/well, and incubated at 4° C. for 1 h. The cells were centrifuged and washed 3 times with a PBS buffer. […] The cells were centrifuged and washed 5 times with PBS, and FACS (FACS Canto™, purchased from BD Company) was used for detection and result analysis. Data analysis was performed by software (CellQuest) to obtain the mean fluorescence […] (MFI) of the cells. And then software (GraphPad Prism8) was used for analysis, data fitting, and EC50 value calculation. The same method was used to simultaneously detect the binding of the chimeric antibodies to endogenous CD3 negative cells MOLT4 cells.
The expanded human PBMC cells were collected, and FACS detection and data analysis were performed according to the method in Example 5.1.

human CD3ε/δ-His [6] = molecular target: T1, human CD3ε/δ-His; experiment: ELISA, coated antigen; remark: listed apart in the source
Experimental: as §1

[7] = molecular target: T2, recombinant human CD3ε-ECD His protein; experiment: ELISA, coated antigen; remark: listed apart in the source
Experimental: as §1

[8] = molecular target: T4, cynomolgus monkey CD3 on the surface of expanded monkey T cells (cynomolgus monkey, UniProt Q95LI5 22-198; Q95LI8 22-171; Q95LI7 23-181); experiment: FACS, expanded monkey T cells
T4 construct: whole, on cells; Endogenous CD3 within the TCR-CD3 complex on T cells expanded from cynomolgus monkey PBMC
Experimental: as §2
The expanded monkey T cells were collected, and FACS detection and data analysis were performed according to the method in Example 5.1.

monkey CD3ε/δ-His = molecular target: T5, monkey CD3ε/δ-His (monkey, UniProt Q95LI5 22-117; Q95LI8 22-105); experiment: ELISA, coated antigen
T5 construct: Bought recombinant heterodimer with His tag
T5 sequence (Q95LI8 22-105, stated change not applied, form in doubt, chain 2 of 2, one chain of several): as the sequence (P04234 22-105, stated change not applied, form in doubt, chain 2 of 2) above, with I5V, N15K, I20V, S32T, D33N, I34N, T64A, S74N, V83L counted along it
Experimental: as §1
(§3) To detect the binding activity of the humanized antibodies to monkey CD3 protein, CD3 protein was diluted with PBS to the final concentration of […], and then added to a 96-well ELISA plate at 50 μl/well.

monkey CD3ε protein = molecular target: T6, monkey CD3ε protein (monkey, UniProt Q95LI5 22-117, limits assumed); experiment: ELISA, coated antigen
T6 sequence (looked up): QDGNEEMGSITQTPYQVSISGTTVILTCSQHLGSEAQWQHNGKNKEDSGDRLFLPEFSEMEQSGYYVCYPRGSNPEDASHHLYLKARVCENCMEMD
Experimental: as §1, §3

human CD3ε/δ-His [9] = molecular target: T1, human CD3ε/δ-His; experiment: SPR, antibody captured on Protein A chip
Experimental: (§4) Running buffer was HBS-EP+(10 mM HEPES, 150 mM NaCl, 3 mM EDTA, 0.05% surfactant P20) (GE Healthcare; BR-1006-69). The flow-through cell was set to 25° C. The sample block was set to 16° C. Both were pretreated with the running buffer. In each cycle, an antibody to be detected was first captured with a Protein A chip, and then a single concentration of CD3ε antigen protein was injected. The binding and dissociation processes of the antibody and the antigen protein were recorded, and finally Glycine pH 1.5 (GE Healthcare; BR-1003-54) was used to complete chip regeneration. The binding was measured by injecting different concentrations of recombinant human CD3ε proteins in a solution for 240 s with a flow rate of 30 μL/min. The concentration started from 200 nM (see the detailed results for the actual concentration in the test) and was diluted at 1:1, making a total of 5 concentrations. The dissociation phase was monitored for up to 600 s and was triggered by switching from sample solution to running buffer. The surface was regenerated by washing with a 10 mM glycine solution (pH 1.5) for 30 s at a flow rate of 30 μL/min. Bulk refractive index difference was corrected by subtracting the response obtained from the goat anti-human Fc surface, and the blank injection was subtracted at the same time (=double reference). For calculation of apparent KD value and other kinetic parameters, Langmuir 1:1 model was used.

[10] = molecular target: T2, recombinant human CD3ε-ECD His protein; experiment: SPR, antibody captured on Protein A chip
Experimental: as §4

[11] = molecular target: T3, human CD3 on the cell surface (Jurkat …); experiment: cell-based or functional assay
[12] = molecular target: T3, human CD3 on the cell surface (Jurkat …); experiment: FACS, Jurkat cells
Experimental: as §2

[13] = molecular target: T2, recombinant human CD3ε-ECD His protein; experiment: SPR (Biacore), antibody captured on Protein A chip
Experimental: Sample buffer and running buffer were HBS-EP+(10 mM HEPES, 150 mM NaCl, 3 mM EDTA, 0.05% surfactant P20) (GE Healthcare; BR-1006-69). The flow-through cell was set to 25° C. The sample block was set to 16° C. Both were pretreated with the running buffer. In each cycle, the antibody to be detected was first captured with a Protein A chip, and then a single concentration of CD3ε antigen protein (purchased from Sino Biological, Inc. (China), catalog number: 10977-H08H) was injected. The binding and dissociation processes of the antibody and the antigen protein were recorded, and finally a glycine solution (pH 1.5, GE Healthcare; BR-1003-54) was used to complete chip regeneration. The binding was measured by injecting different concentrations of recombinant human CD3ε-ECD His proteins in a solution for 240 s with a flow rate of 30 μL/min. The concentration started from 200 nM (see the detailed results for the actual concentration in the test) and was diluted at 1:1, making a total of 5 concentrations. The dissociation phase was monitored for up to 600 s and was triggered by switching from sample solution to running buffer. The surface was regenerated by washing with a 10 mM glycine solution (pH 1.5) for 30 s at a flow rate of 30 μL/min. Bulk refractive index difference was corrected by subtracting the response obtained from the goat anti-human Fc surface. Blank injection was also subtracted (=double reference). For calculation of apparent KD and other kinetic parameters, Langmuir 1:1 model was used.

[14] = molecular target: T4, cynomolgus monkey CD3 on the surface of …; experiment: FACS, expanded monkey T cells; remark: listed apart in the source
Experimental: as §2, with “MOLT4 cells. […]” for “MOLT4 cells.”

[15] = molecular target: T3, human CD3 on the cell surface (Jurkat …); experiment: FACS, expanded human T cells; remark: listed apart in the source
Experimental: as §2

[16] = molecular target: T3, human CD3 on the cell surface (Jurkat …); experiment: FACS, expanded human T cells; remark: listed apart in the source
Experimental: as §2

[17] = molecular target: T4, cynomolgus monkey CD3 on the surface of …; experiment: FACS, expanded monkey T cells, 4 nM antibody
Experimental: as §2
FACS detection and data analysis were performed on the cryopreserved monkey T cells of Example 2.4 according to the method in Example 5.1.

[18] = molecular target: T3, human CD3 on the cell surface (Jurkat …); experiment: cell-based or functional assay; remark: listed apart in the source

EC50 (human CD3ε/δ-His [1]): 23.4 nM | max-OD450 (human CD3ε/δ-His [1]): 1.31 OD450 | max-OD450 [2]: 0.06 OD450 | EC50 (human CD3ε/δ-His [3]): 23.4 nM | max-OD450 (human CD3ε/δ-His [3]): 1.31 OD450 | max-OD450 [4]: 0.15 OD450 | EC50 [5]: 4.72 nM | max_MFI [5]: 20900 MFI | EC50 (human CD3ε/δ-His [6]): 23.4 nM | max-OD450 (human CD3ε/δ-His [6]): 1.31 OD450 | max-OD450 [7]: 0.05 OD450
B1: 7221G20-hIgG1 (antibody, V domains shown)
VH: EVQLVESGGGLVQPGRSLRLSCAASGFTFDDYSMHWVRQAPGKGLEWVSGISWNSGSIGYADSVKGRFTISRDNAKNSLYLQMNSLRAEDTALYYCAKYGSGYGKFYYYGMDVWGQGTTVTVSS
VL: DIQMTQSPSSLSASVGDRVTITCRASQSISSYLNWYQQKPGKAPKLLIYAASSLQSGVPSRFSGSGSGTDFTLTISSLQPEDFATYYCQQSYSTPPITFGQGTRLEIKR
binding result [4]: no binding (tested: 100 nM (initial concentration))

EC50 [8]: 0.17 nM | max_MFI [8]: 24800 MFI | EC50 (human CD3ε/δ-His [1]): 0.03 nM | max-OD450 (human CD3ε/δ-His [1]): 3.05 OD450 | EC50 [2]: 0.09 nM | max-OD450 [2]: 2.7 OD450 | EC50 (monkey CD3ε/δ-His): 0.225 pM | max-OD450 (monkey CD3ε/δ-His): 3.07 OD450 | EC50 (monkey CD3ε protein): 0.00947 pM | max-OD450 (monkey CD3ε protein): 2.84 OD450 | EC50 [5]: 0.43 nM | max_MFI [5]: 34000 MFI | Kd (human CD3ε/δ-His [9]): 69 nM | koff (human CD3ε/δ-His [9]): 0.0339 s⁻¹ | kon (human CD3ε/δ-His [9]): 491000 M⁻¹ s⁻¹ | Kd [10]: 0.669 nM | koff [10]: 0.000311 s⁻¹ | kon [10]: 466000 M⁻¹ s⁻¹
B2: 6-44.5-H1-L2 humanized antibody (antibody, human IgG1, kappa, V domains shown)
VH: EVQLVQSGAEVKKPGSSVKVSCKASGHTFSSHIMHWVRQAPGQGLEWMGYINPNNDRTEYSEKFKGRVTITADKSTSTAYMELSSLRSEDTAVYYCAGEAYYSNSLYAMDYWGQGTTVTVSS
VL: DIVMTQSPDSLAVSLGERATINCKSSQSLFNSRTRKNYLAWYQQKPGQSPKLLIYWASTRESGVPDRFSGSGSGTDFTLTISSLQAEDVAVYYCKQSYYLRTFGGGTKVEIKR

EC50 (nM), luciferase reporter, Jurkat-Lucia NFAT cells [11]: 11.8 nM | Maximum response value (RLU) [11]: 8570 RLU | EC50 [12]: 3.37 nM | MFI_Max [12]: 2800 MFI | Kd [13]: 0.959 nM | koff [13]: 0.000261 s⁻¹ | kon [13]: 272000 M⁻¹ s⁻¹ | EC50 [14]: 2.74 nM | EC50 [15]: 4.62 nM | MFI_Max [15]: 3800 MFI
B3: 7-35.6 human-murine chimeric antibody (antibody, human IgG1, lambda, V domains shown)
VH: EVQLVESGGGLVQPKGSLKLSCAASGFTFNTYAMNWVRQAPGKGLEWVGRIRSKINNYATYYGDSVKDRFTISRDDSQSMFYLQMNNLKTEDTAMYYCVIHENYGSISWFAYWGQGTLVTVSA
VL: QAVVTQESTLTTSPGETVTLTCRSSTGAVTTSNYANWVQEKPDHLFTGLIGGTNNRAPGVPARFSGSLIGDKAALTITGAQTEDEAIYFCALWYSNHWVFGGGTKLTVLG
notes: Human IgG1 chimera

EC50 [16]: 1.58 nM | MFI_Max [16]: 8980 MFI | MFI at antibody concentration 4 nM [17]: 16100 MFI | EC50 (nM), luciferase reporter, Jurkat-Lucia NFAT cells [18]: 11.8 nM | Maximum response value (RLU) [18]: 10400 RLU | Kd [13]: 0.542 nM | koff [13]: 0.000241 s⁻¹ | kon [13]: 445000 M⁻¹ s⁻¹
B4: 8-18.1 human-murine chimeric antibody (antibody, human IgG1, kappa, V domains shown)
VH: QVQLQQSGAELARPGASVKMSCKASGYIFTMNTMHWVKQRPGQGLEWIGYINPYSGYTKYNQIFKDKATLTADKSSSTAYMRLSSLTSEDSAVYYCLRGGEGVWGQGTTLTVSS
VL: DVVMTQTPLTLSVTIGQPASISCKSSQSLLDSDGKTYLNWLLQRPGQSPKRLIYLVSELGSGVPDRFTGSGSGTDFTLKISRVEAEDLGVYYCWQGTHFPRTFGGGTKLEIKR
notes: Human IgG1 chimera
